How the values were obtained:
[1] = tested on: ovarian cancer cell line (PA-1); assay: Cytotoxicity assay, cell titer glow luminescence, 72 h; format: cell-based; settings: for activity against PA-1 cell lines (in words): IC50 values in nanomoles
Procedure: (§1) T-24 Cell line were cultured in McCoy's 5a Medium Modified supplemented with 10% FBS and the PA-1 Cell line was cultured in EMEM Media supplemented with 10% FBS. The assay was performed by plating 5,000 cells/well and incubated at 37° C. overnight. […] Each concentration was added in triplicate and media-only wells used as a control. After incubation for 72 h cell titer glow (Promega) reagent (50 μL) was added to each well and the plates shaken for 5 mins and the luminescence was recorded. Percent viability was determined by dividing luminescence of the treated well by the non-treated well and multiplying by 100. Data was analysed using non-linear regression with a logarithmic scale.
(§2) 5,000 cells/well were plated and incubated at 37° C. overnight. Conjugates/vehicle control dilutions were made in respective media and added to cells. Volume added: 50 uL to each well. Starting treatment concentration was 1 uM for Conjugate of formula 16 and 18, and control SEQ ID NO: 5 alone and 10% for vehicle control (1×PBS with 20% DMA) and then diluted 10-fold down for a total of 11 treatment dilutions. Each concentration was analysed in triplicates. Media-only wells was used as a control to calculate percent viability. Cell titer glow reagent (volume: 50 uL) was added to each well, the plate was shaken for 5 mins and the luminescence was recorded. Drug Treatment Time: 72 hours. Percent viability was calculated by dividing the luminescence signal obtained for each treated well by the untreated well (media-only control) and multiplying by 100.

[2] = tested on: human urinary bladder cancer cell line (T-24); assay: as above; format: cell-based
Procedure: as §1, §2

Row | Molecule | IC50 ([1]; 72 h) | IC50 ([1]; 72 h, listed as formula 19) | activity against PA-1 cell lines (in words) [1] | IC50 ([2]; 72 h) | activity against T-24 cell lines (in words) ([2]; IC50 values in nanomoles) | cytotoxic effects below 10 μM concentration ([2]; below 10 μM) | IC50 values, PA-1 Cell line ([1]; 72 h) | cytotoxic effects below 10 μM concentration ([1]; below 10 μM)
1 | Formula 19: Recombinant lectin of SEQ ID NO 2 (via Formula C) conjugated with Tesirine, DAR 1.32 (conjugate, Tesirine conjugate via Formula C linker) TYKITVRVYQTNPDAFFHPVEKTVWKYANGGTWTITDDQHVLTMGGSGTSGTLRFHADNGESFTATFGVHNYKRWCDIVTNLAADETGMVINQQYYSQKNREEARERQLSNYQVKNAKGRNFQIVYTEAEGNDLHANLIIG | 5.22 nM | 5.22 nM | potent activity | – | – | – | – | –
2 | Formula 18: Recombinant lectin of SEQ ID NO 5 conjugated with Tesirine, DAR 1.05 (conjugate, Tesirine conjugate) SYKITVRVYQTNPDAFFHPVEKTVWKYANGGTWTITDDQHVLTMGGSGTSGTLRFHADNGESFTATFGVHNYKRWGDIVTNLAADETGMVINQQYYSQKNREEARERQLSNYQVKNAKGRNFQIVYTEAEGNDLHANLIIGC | 1.04 nM | – | potent activity | 19.9 nM | potent activity | – | – | –
3 | SEQ ID NO: 5: recombinant S. rolfsii lectin variant with T1S, C76G and cysteine added at C terminal end (protein, C-terminal cysteine added, recombinant S. rolfsii lectin variant with T1S, C76G and cysteine added at C terminal end) SYKITVRVYQTNPDAFFHPVEKTVWKYANGGTWTITDDQHVLTMGGSGTSGTLRFHADNGESFTATFGVHNYKRWGDIVTNLAADETGMVINQQYYSQKNREEARERQLSNYQVKNAKGRNFQIVYTEAEGNDLHANLIIGC | – | – | – | – | – | does not exhibit major cytotoxic effects | 16 µg/mL | does not exhibit major cytotoxic effects
